Assay results: paper PMC7093598

Tests used:
[1] = target: titin N2A construct(s), number of N2A-Us elements not stated for the experiment (human) (UniProt Q8WZ42)
[2] = target: titin N2A construct(s), number of N2A-Us elements not stated for the experiment (human) (UniProt Q8WZ42); remark: listed apart in the source

- unfolding rate constant α0 of the Ig domains in the absence of applied force with CARP, from the Bell fit of the force clamp data [1]: 0.43 s⁻¹
- unfolding rate α of the Ig domains with CARP, AFM force clamp at clamp forces of 100-150 pN; value printed at 100 pN (3.2 s^-1 without CARP) [1]: 2.4 s⁻¹
- increase of the Ig domain unfolding force (F unfold, force peaks 1-4) with CARP, AFM force-extension curves at 400 nm/s [2]: 20 pN
Substance: CARP (Cardiac Ankyrin Repeat Protein) 106-319, N-terminally truncated construct corresponding to the titin-binding region (from UniProt Q15327 106-319) (domain or fragment)
